These are literature values, as cited in publication PMC12071944, “Interaction Between Glucagon-like Peptide 1 and Its Analogs with Amyloid-β Peptide Affects Its Fibrillation and Cytotoxicity” (International Journal of Molecular Sciences, 2025).

The subject of the series is AD patients. Conditions: human, in vivo. The text has this:
Worldwide, approximately 416 million individuals are affected by AD dementia, prodromal AD, or preclinical AD, accounting for 22% of the population aged 50 years and older.

B1: lecanemab (antibody, chains of the INN, looked up, V domains shown)
VH: EVQLVESGGGLVQPGGSLRLSCSASGFTFSSFGMHWVRQAPGKGLEWVAYISSGSSTIYYGDTVKGRFTISRDNAKNSLFLQMSSLRAEDTAVYYCAREGGYYYGRSYYTMDYWGQGTTVTVSS
VL: DVVMTQSPLSLPVTPGAPASISCRSSQSIVHSNGNTYLEWYLQKPGQSPKLLIYKVSNRFSGVPDRFSGSGSGTDFTLRISRVEAEDVGIYYCFQGSHVPPTFGPGTKLEIK
With B1, the side effects entry was “brain edema and microhemorrhages”.
